Laboratory results taken from patent publication US7271245B2, “Methods and compositions for inhibition of metastasis” (The Scripps Research Institute, priority 2004, dated 2007).

System: BMS human breast cancer cells
Experiment: Tumor cell adhesion under stationary conditions
Format: cell-based
Conditions: 3 μM scFv
Protocol: FIGS. 3A, 3B, 3C, 3D, 3E. scFv Bc-12 and Bc-15 inhibit αvβ3 mediated adhesive breast cancer cell functions. (A) Adhesion of BMS human breast cancer cells to fibrinogen (Fg), vitronectin (VN) or type I collagen (Col I) in the absence or presence of 3 μM Bc-12, Bc-15 or their RGE mutants Mut-12, Mut-15, compared to 200 μM GRGDSPK peptide (SEQ ID NO: 11). Protein coating concentrations: 10 μg/ml (VN, Col I) or 20 μg/ml (Fg). Adhesion time: 30 min at 37° C. (B) Effect of scFvs on haptotactic BMS cell migration toward a fibrinogen substrate (16 hrs at 37° C. in transwell chambers with or without 2 μM Bc-12, Bc-15 or their RGE mutants Mut-12 or Mut-15, compared to 200 μM GRGDSPK peptide) (SEQ ID NO: 11). (C) Effect of scFvs on breast cancer cell arrest during blood flow. Metastatic BMS cells, labeled with hydroethidine, were suspended in human blood (anticoagulated with 50 nM PPACK) and perfused over a collagen I matrix at a venous wall shear rate of 50 s^−1. Under these conditions, breast cancer cells arrest by αvβ3 mediated binding to adherent, thrombus forming platelets. Tumor cell adhesion was quantified by image acquisition at 30 predefined positions during blood flow. Left: representative images of platelet signal (thrombi, green fluorescence) and tumor cell signal (red fluorescence) at identical x,y positions. Right: Number of arrested tumor cells in the presence of 3 μM non-function blocking anti αv scFv Bc-20 or function blocking anti αvβ3 scFvs Bc-12 or Bc-15. (D) scFv Bc-15 is internalized by human breast cancer cells and reduces cell proliferation. Left: confocal images of BMS cells incubated for 4 hrs with FITC-Bc-15 at 4° C. (binding) versus 37° C. (allowing internalization). Right: Phase contrast images of BMS cell cultures 4 days after seeding in the presence of 2 μM RGE containing scFv Mut-15, or RGD containing Bc-15. (E) Effect of scFv Bc-12 on the viability of matrix deprived BMS breast cancer cells in ultra-low-adhesion plates in the presence or absence of 3.7 μM scFv, or 14.36 μM camptothecin as apoptosis inducing control. Measurement of apoptosis was based on cytoplasmic histone-associated DNA fragments after 20 hrs.
Cell adhesion and migration. Tumor cell adhesion under stationary conditions was analyzed as detailed earlier (19). Adhesion buffer was Hanks balanced salt solution (HBSS) pH 7.4, 0.5% BSA, 1 mM MgCl2, 0.2 mM MnCl2. For inhibition, cells were incubated for 5 min at RT either with 3 μM scFv or 200 μM GRGDSPK (SEQ ID NO: 11) peptide, then plated in the presence of inhibitor and allowed to attach for 30 min at 37° C. Haptotactic tumor cell migration toward fibrinogen was analyzed in transwell chambers as detailed earlier. Rolli, M., et al., Proc. Natl. Acad. Sci. U.S.A 100: 9482-9487, 2003. […]

B1: Bc-12: patient derived human scFv antibody against activated αvβ3 with RGD motif in CDR-H3; cDNA ATCC PTA-6303 (protein)
scFv: MAQVQLVQSGAEVKKPGASVKVSCKASGYTFSNYGITWVRQAPGQGLEWMGWINNGNTHYAQKFQGRVTMTTDTSTSTAYMELRSLRSDDTAVYYCARDPRGDDEPYWGQGTLVTVSSGGGGSGGGGSGGGGSEIVLTQSPLSLPVTLGQPASISCRSSQNLVYSDGNTYLSWFQQRPGQSPRRLIYKVSNRDSGVPDRFSGSGSGTDFTLKISRVEAEDIGVYYCMQGTHWPPRTFGQGTKVEIKRGLGGLVDYKDDDDK
  adhesion to collagen type I: no effect
  attachment to vitronectin: inhibited by Bc-12 and Bc-15, but to a lesser degree
30 min at 37° C.
  adhesion to immobilized fibrinogen: efficiently inhibited
